Source: US10154957B2, “Microneedle device having a peptide therapeutic agent and an amino acid and methods of making and using the same” (3M INNOVATIVE PROPERTIES COMPANY, priority 2011, dated 2018)
Values belong to the substance of their own block, whether it stands above or below them.

Columns and labels:
Type in all cases: physicochemical
[1] = Stability of PTH in coating on flood-coated microneedle arrays stored at 40° C./96% RH (HPLC); details: PTH 10 mg/mL in PBS
Description: (§1) The protein or polypeptide content in the formulation coated on the microneedle arrays was determined using an Agilent 1100 HPLC system (Agilent Technologies, Wilmington, Del.) equipped with a binary pump, well-plated thermostated autosampler, thermostated column compartment, and a diode array UV detector. A Zorbax 300SB-C8 column (Agilent Technologies, Wilmington, Del.) having a 5 μm particle size and 2.1×150 mm inner diameter was used for the separations. The column was maintained at 50° C. The mobile phase consisted of two eluents. Eluent A was 0.1% TFA (trifluoroacetic acid) in water and eluent B was 0.1% TFA in acetonitrile (Spectrum Chemical, New Brunswick, N.J.). A linear gradient from 80/20 to 50/50 (A/B) was applied over 30 minutes. The flow rate was 0.4 mL/minute and the UV detection wavelength was set at 214 nm. The total run time was 34 minutes and the sample injection volume was 15 μL.
(§2) Microneedle arrays were coated with either the sample or the control formulation. The coating was applied by dropwise addition of 50 μL of the formulation to the portion of the array defined by the octagon shaped pattern of microneedles. The flood coated arrays (both sample and control formulation coated) were dried in an oven at 35° C. for about 15 hours.
After drying, the coated arrays were placed in a storage chamber that was maintained at 40° C. and 96% relative humidity (RH). […] The arrays used as reference standards were stored in a refrigerator at about 4° C. and analyzed within one day of being prepared.

[2] = Stability of lysozyme in coating on flood-coated microneedle arrays stored at 40° C./96% RH (HPLC); details: lysozyme 10 mg/mL in PBS
Description: as §1
as §2, with “A sample formulation containing 10 mg/mL of lysozyme and 12 mg/mL of L-histidine monohydrochloride (His-HCl) in PBS was prepared. The pH of the sample formulation was 5.5-6.0. A control formulation was also prepared containing 10 mg/mL of lysozyme in PBS. […] The pH of the control formulation was 6.5. Microneedle” for “Microneedle”
(§3) After drying, the coated arrays were placed in a storage chamber that was maintained at 40° C. and 96% relative humidity (RH). The lysozyme content of the coated arrays was determined following storage in the chamber for 1, 3, 7, and 14 days. At the designated time point, an array was taken from the chamber and washed with PBS (2 mL) to remove the coating from the array. An aliquot of the resulting wash solution was analyzed for lysozyme content using the HPLC method described above. Reference standards were prepared by measuring the lysozyme content of freshly coated arrays (both sample and control formulation coated). The arrays used as reference standards were stored in a refrigerator at about 4° C. and analyzed within one day of being prepared. The percentage of undegraded lysozyme remaining in the coating at each time point was determined by measuring the peak area for lysozyme in the selected coating and dividing it by the peak area measured for lysozyme in the corresponding reference standard.
The same procedure as described in Example 7 was used with the exception that the sample formulation contained 12 mg/mL of L-arginine hydrochloride, instead of L-histidine monohydrochloride. The pH of the sample formulation was 6.5.

[3] = Stability of salmon calcitonin in coating on flood-coated microneedle arrays stored at 40° C./96% RH (HPLC); details: salmon calcitonin 5 mg/mL in PBS
Description: as §1
as §2, with “A sample formulation containing 5 mg/mL of salmon calcitonin and 12 mg/mL of L-histidine monohydrochloride (His-HCl) in PBS was prepared. The pH of the sample formulation was 5.5. A control formulation was also prepared containing 5 mg/mL of salmon calcitonin in PBS. […] The pH of the control formulation was 6.0-6.5. Microneedle” for “Microneedle”
as §3, with “The salmon calcitonin” for “The lysozyme”, “PBS (1” for “PBS (2”, “for salmon calcitonin” for “for lysozyme”, “the initial salmon calcitonin” for “the lysozyme”, “undegraded salmon calcitonin” for “undegraded lysozyme”
The same procedure as described in Example 3 was used with the exception that the sample formulation contained 12 mg/mL of L-arginine hydrochloride, instead of L-histidine monohydrochloride. The pH of the sample formulation was 6.0-6.5.

[4] = Amino Acid L-Arginine (Arg-HCl 12 mg/mL), Day 1 at 40° C./96% RH
[5] = Amino Acid L-Arginine (Arg-HCl 12 mg/mL), Day 3 at 40° C./96% RH
[6] = Amino Acid L-Arginine (Arg-HCl 12 mg/mL), Day 7 at 40° C./96% RH
[7] = Amino Acid L-Arginine (Arg-HCl 12 mg/mL), Day 14 at 40° C./96% RH
[8] = Amino Acid L-Arginine (Arg-HCl 12 mg/mL), Initial
[9] = Amino Acid L-Histidine (His-HCl 12 mg/mL), Day 1 at 40° C./96% RH
[10] = Amino Acid L-Histidine (His-HCl 12 mg/mL), Day 3 at 40° C./96% RH
[11] = Amino Acid L-Histidine (His-HCl 12 mg/mL), Day 7 at 40° C./96% RH
[12] = Amino Acid L-Histidine (His-HCl 12 mg/mL), Initial
[13] = Amino Acid None (control), Day 1 at 40° C./96% RH
[14] = Amino Acid None (control), Day 3 at 40° C./96% RH
[15] = Amino Acid None (control), Day 7 at 40° C./96% RH
[16] = Amino Acid None (control), Day 14 at 40° C./96% RH
[17] = Amino Acid None (control), Initial
[18] = Amino Acid L-Histidine (His-HCl 12 mg/mL), Day 14 at 40° C./96% RH

Substance: parathyroid hormone (1-34) (human) [PTH]
- Percent of Initial PTH Content in the Coating [1, 4]: 3.5%
- Percent of Initial PTH Content in the Coating [1, 5]: 0.8%
- Percent of Initial PTH Content in the Coating [1, 6]: 0.4%
- Percent of Initial PTH Content in the Coating [1, 7]: 0%
- Percent of Initial PTH Content in the Coating [1, 8]: 100%
- Percent of Initial PTH Content in the Coating [1, 9]: 85.2%
- Percent of Initial PTH Content in the Coating [1, 10]: 60.3%
- Percent of Initial PTH Content in the Coating [1, 11]: 23.1%
- Percent of Initial PTH Content in the Coating [1, 12]: 100%
- Percent of Initial PTH Content in the Coating [1, 13]: 1.3%
- Percent of Initial PTH Content in the Coating [1, 14]: 0%
- Percent of Initial PTH Content in the Coating [1, 15]: 0%
- Percent of Initial PTH Content in the Coating [1, 16]: 0%
- Percent of Initial PTH Content in the Coating [1, 17]: 100%

Substance: lysozyme
- Percent of Initial Lysozyme Content in the Coating [2, 4]: 52.6%
- Percent of Initial Lysozyme Content in the Coating [2, 5]: 33.1%
- Percent of Initial Lysozyme Content in the Coating [2, 6]: 22.4%
- Percent of Initial Lysozyme Content in the Coating [2, 7]: 23.0%
- Percent of Initial Lysozyme Content in the Coating [2, 8]: 100%
- Percent of Initial Lysozyme Content in the Coating [2, 9]: 100.0%
- Percent of Initial Lysozyme Content in the Coating [2, 10]: 80.6%
- Percent of Initial Lysozyme Content in the Coating [2, 11]: 60.1%
- Percent of Initial Lysozyme Content in the Coating [2, 18]: 53.3%
- Percent of Initial Lysozyme Content in the Coating [2, 12]: 100%
- Percent of Initial Lysozyme Content in the Coating [2, 13]: 26.9%
- Percent of Initial Lysozyme Content in the Coating [2, 14]: 4.4%
- Percent of Initial Lysozyme Content in the Coating [2, 15]: 1.9%
- Percent of Initial Lysozyme Content in the Coating [2, 16]: 1.9%
- Percent of Initial Lysozyme Content in the Coating [2, 17]: 100%

- Percent of Initial Salmon Calcitonin Content in the Coating [3, 4]: 5.8%
- Percent of Initial Salmon Calcitonin Content in the Coating [3, 5]: 0.3%
- Percent of Initial Salmon Calcitonin Content in the Coating [3, 6]: 0%
- Percent of Initial Salmon Calcitonin Content in the Coating [3, 7]: 0%
- Percent of Initial Salmon Calcitonin Content in the Coating [3, 8]: 100%
- Percent of Initial Salmon Calcitonin Content in the Coating [3, 9]: 30.3%
- Percent of Initial Salmon Calcitonin Content in the Coating [3, 10]: 31.7%
- Percent of Initial Salmon Calcitonin Content in the Coating [3, 11]: 7.5%
- Percent of Initial Salmon Calcitonin Content in the Coating [3, 18]: 2.7%
- Percent of Initial Salmon Calcitonin Content in the Coating [3, 12]: 100%
- Percent of Initial Salmon Calcitonin Content in the Coating [3, 13]: 21.5%
- Percent of Initial Salmon Calcitonin Content in the Coating [3, 14]: 0.9%
- Percent of Initial Salmon Calcitonin Content in the Coating [3, 15]: 0.1%
- Percent of Initial Salmon Calcitonin Content in the Coating [3, 16]: 0%
- Percent of Initial Salmon Calcitonin Content in the Coating [3, 17]: 100%
Substance: Salmon calcitonin
